Measured values as given in PMC12689640.

Legend:
[1] = molecular target: μOR W293^6.48A-RLuc8 (mouse) (UniProt P42866)
[2] = molecular target: μOR S329^7.46A-RLuc8 (mouse) (UniProt P42866)
[3] = molecular target: μOR N86^1.50A-RLuc8 (mouse) (UniProt P42866)
[4] = molecular target: μOR Y326^7.43F-RLuc8 (mouse) (UniProt P42866)
[5] = molecular target: μOR Q124^2.60L-RLuc8 (mouse) (UniProt P42866)

## Gi heterotrimer of the dissociation assay (Gαi1-RLuc8, Gβ1, Venus-Gγ2) (from UniProt P63096 1-354; P62873 1-340; P59768 1-71) (complex)
[1]
  efficacy of Gi activation against wild type (Gi dissociation BRET): 35 to 60%
[2]
  decrease of Gi dissociation efficacy against wild type (BRET): 40%
[3]
  efficacy of Gi activation against wild type (Gi dissociation BRET): 40 to 60%
[4]
  decrease of Gi dissociation efficacy against wild type (BRET): 30%
[5]
  efficacy of Gi dissociation against wild type (BRET), stimulated with DAMGO: 60%
